Measured values: the supplement of paper PMC7125110
± gives the standard error. For some assays here: Variants at the floor of the assay were thinned out.

B1: glmS ribozyme (parent)
chain: AUAAAAGCGCCAGAACUACAGAAAUGUAGUUGACGAGGAGGAGGUUUAUCGAAUUUUCGGCGGAUGCCUCCAAA

Columns and labels:
Conditions in all cases: with glucosamine-6-phosphate
glucosamine-6-phosphate [1] = variants of: B1; experiment: kcat; higher = faster cleavage; RNA array
How it was run: (§1)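 Barcoded ribozyme variants, transcribed in situ by E. coli RNA polymerase on sequenced MiSeq chips, were followed via a hybridised Cy3 probe at 37 °C. Glucosamine-6-phosphate ranged from 40 μM to 10 mM in HEPES/KCl/Mg(OAc)2 buffer. kobs came from decay fits to per-tile medians, and kcat and KM from weighted Michaelis–Menten fits.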

glucosamine-6-phosphate [2] = variants of: B1; experiment: KM; higher = weaker cofactor use; RNA array
How it was run: as §1

glucosamine-6-phosphate [3] = variants of: B1; experiment: self-cleavage kobs at 10000 uM GlcN6P; higher = faster cleavage; RNA array
How it was run: as §1

glucosamine-6-phosphate [4] = variants of: B1; experiment: self-cleavage kobs at 160 uM GlcN6P; higher = faster cleavage; RNA array
How it was run: as §1

glucosamine-6-phosphate [5] = variants of: B1; experiment: self-cleavage kobs at 640 uM GlcN6P; higher = faster cleavage; RNA array
How it was run: as §1

glucosamine-6-phosphate [6] = variants of: B1; experiment: self-cleavage kobs at 2500 uM GlcN6P; higher = faster cleavage; RNA array
How it was run: as §1

glucosamine-6-phosphate [7] = variants of: B1; experiment: self-cleavage kobs at 40 uM GlcN6P; higher = faster cleavage; RNA array
How it was run: as §1

Row | Variant | kcat (glucosamine-6-phosphate [1]) [s⁻¹] | KM (glucosamine-6-phosphate [2]) [µM] | self-cleavage kobs at 10000 uM GlcN6P (glucosamine-6-phosphate [3]) [s⁻¹] | self-cleavage kobs at 160 uM GlcN6P (glucosamine-6-phosphate [4]) [s⁻¹] | self-cleavage kobs at 640 uM GlcN6P (glucosamine-6-phosphate [5]) [s⁻¹] | self-cleavage kobs at 2500 uM GlcN6P (glucosamine-6-phosphate [6]) [s⁻¹] | self-cleavage kobs at 40 uM GlcN6P (glucosamine-6-phosphate [7]) [s⁻¹]
1 | AUAAAAGCGCCAGAACUACAGAAAUGUAGUUGCCGAGGAGGAGGUUUAUCGAAUUUUCGGCGGAAGCCUCCAAA | 4.76e-05 ± 2.3e-06 | 617 ± 240 | 4.47e-05 ± 1.6e-05 |  |  |  | 
2 | AUAAAAGCUCCAGAACUACAGAAAUGUAGUUGACGAGGAGGAGGUUCAUCGAAUUUUCGGCGGAUGCCUCCAAA | < 1e-05 |  |  | < 1e-05 | < 1e-05 | < 1e-05 | 
3 | AUAAAAGCGCCAGAACUACAGAAAUGUAGUUGACGAGGAAGAGGUUUAUCGAAUGUUCGGCGGAUGCCUCCAAA | 0.00116 ± 0.00032 | 369 ± 170 | 0.00106 ± 0.00018 | 0.000246 ± 5.5e-05 | 0.000944 ± 0.00014 |  | 0.000131 ± 1.8e-05
4 | AUAAAAGCGCCAGAACUACAGAAAUGUAGUUGACGAGGAGGAGGUUUAUCGGAUUUUCGGCGGAUGGCUCCAAA | 0.000104 ± 6.8e-06 | 22.4 ± 10 | 9.62e-05 ± 8.6e-06 | 7.15e-05 ± 2.3e-05 | 0.000107 ± 1e-05 | 0.000123 ± 1.6e-05 | 6.74e-05 ± 9e-06
5 | AUAAAAGCGCCAGAACUACAGAAAUGUAGUCGACGAGGAGGAGGUUUAUCGAAUUUUCGGCGGAUGCCUCGAAA | 0.000382 ± 8.8e-05 | 1970 ± 890 | 0.000321 ± 4.9e-05 |  | 9.1e-05 ± 1.5e-05 | 0.000213 ± 3.5e-05 | 
6 | AUAAAAGCGCCAGAACUACAGAAAUGUAGGUGACGAGGAGGAGGUUUAUCGAAUUUUCGGCGGGUGCCUCCAAA | 0.00607 ± 0.0017 | 1440 ± 540 | 0.0064 ± 0.0018 |  |  |  | 0.000178 ± 3.9e-05
7 | AUAAAAGCGCCAGAACUACAGAAAUGUAGGUGACGAGGAGGAGGUUUAUCGGAUUUUCGGCGGAUGCCUCCAAA | 0.000498 ± 6.7e-05 | 2430 ± 620 | 0.000388 ± 4.4e-05 | 4.03e-05 ± 2e-05 | 9.63e-05 ± 1.4e-05 | 0.00033 ± 5.9e-05 | 
8 | AUAAAAGCGCCAGCACUACAGAAAUGUAGCUGACGAGGAGGAGGUUUAUCGAAUUUUCGGCGGAUGCCUCCAAA | 1.53e-05 ± 3.1e-07 | 151 ± 50 |  | < 1e-05 |  |  | 
